According to the supplement of paper PMC9170038:

Test system: MS2 coat protein
Assay: apparent KD of MS2 coat protein; designed switch direction (-1 OFF switch, 1 ON switch): -1; higher = weaker reporter binding
How it was run: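 Each step of the titration lasted 0.8–1.5 h at the lowest concentration and 10–20 min at the highest. The protein, SNAP-549-labelled MS2 coat protein, went from 0.7 or 1.5 nM doubling to 3 µM over RNA switches transcribed on Illumina chips by stalled E. coli RNA polymerase. Normalised cluster fluorescence was curve-fitted, and the per-design median over clusters is given as apparent KD.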

[1] = input ligand: microRNA oligo, concentration not stated
[2] = Eterna round: R95, input ligand: FMN 200 uM
[3] = Eterna round: R95, input ligand: microRNA oligo, concentration not stated
[4] = Eterna round: R95, input ligand: none

Sequence	apparent KD of MS2 coat protein (input ligand: FMN 200 uM)	apparent KD of MS2 coat protein [1]	apparent KD of MS2 coat protein (input ligand: none)	apparent KD of MS2 coat protein [2]	apparent KD of MS2 coat protein [3]	apparent KD of MS2 coat protein [4]
AACAAAACGCGAGGAUAUCGCCAACAUGAGGAUCACCCAUGUCACGGGUGCAAAUGUCUUCUAGGCGAGAAGGCGCAUCCAUAC [Diatza] (Eterna round: R96, puzzle: Exclusion NG 2)	704 nM	344 nM	641 nM			
AACAAGCUUUUAAGAUCCUACAUGAGGAUCACCCAUGUGCUCGUCUUGUAACGUACUGUGACGAAAGUCACGGUACG [JL TOV1 3.29] (Eterna round: R97, puzzle: Sensor, turn-off variant 1)	233 nM		182 nM			
AACACGGCAGGAUAUACUUGAGGAUCACCCAAGUUGUUCGCAACAUAAAAUAACUCUUGUAGAAGGGCCAAAAG [Isorbi] (Eterna round: R97, puzzle: Exclusion 3)	220 nM		33.6 nM			
AACAGUACAGGAUAUACAUGAGGAUCACCCAUGUGAAGAAUAAGUGGAGUACCACAAAGUAGAAGGGUACUGGA [Ruby 88] (Eterna round: R96, puzzle: Exclusion 3)		21.5 nM				
AACCUAAUGCGAGGAUAUACUGAGACGUACAGUCGUCAGACAUGAGGAUCACCCAUGUACGCCUCGUAGAAGGCGCGUGACUAA [Bearareus] (Eterna round: R96, puzzle: Exclusion NG 2)	32.6 nM	13.4 nM	16.8 nM			
AACCUGAGGCAAAGCUUUAGGUGUACAUGAGGAUCACCCAUGUAGGAUAUGGUAAGCAAAGCUUACCAGAAGGACAUAAUGAUA [Mat - Exclusion NG 3 - Mod of JL - D49] (Eterna round: R96, puzzle: Exclusion NG 3)	86.5 nM	37.6 nM	59.4 nM			
AACCUGAGGCUUUGCUUUAGGUGUACAUGAGGAUCACCCAUGUAGGAUAUGGUAGGCUUUGCUUACCAGAAGGACAUUAUGAUG [JL ENG3 1.17] (Eterna round: R96, puzzle: Exclusion NG 3)	75.1 nM	44.3 nM	52.8 nM			
AACUAAACAUGAGGAUAUGCCUGGGAAGAACAGGCAGAAGGCGUGACAUGAGGAUCACCCAUGUAGCCGGGCUAUUCUCAUGCG [Cediceor] (Eterna round: R96, puzzle: Exclusion NG 1)	25.3 nM	26.1 nM	31.3 nM			
AACUCACGUUCAGGAUAUCGCGUUCCAAAGACAUGAGAAGGGAACAUGAGGAUCACCCAUGUGCCCGGUCUCAGACCGGGCUUC [Cetein] (Eterna round: R96, puzzle: Exclusion NG 1)	328 nM	76 nM	88.8 nM			
AACUCUGAGAAGGAUAUGGUACGGGAAAUGGUACCAGAAGGUUUCACAUGAGGAUCACCCAUGUCGAAUAGUGA [EX6 #68] (Eterna round: R97, puzzle: Exclusion 6)	28.8 nM		27.4 nM			
AACUCUGAGAAGGAUAUUGUACGGGAAAUGGUACAAGAAGGUUUCACAUGAGGAUCACCCAUGUCGAAUAGUGA [EX6 #69] (Eterna round: R97, puzzle: Exclusion 6)	34.7 nM		22.9 nM			
AAGAAACAUGAGGAUCACCCAUGUCAGGAUAUCCGAAAAGAAAAGAAAAGAAAAGAAAGGAGAAGGGACAAAAG [Default title] (puzzle: Exclusion 1)				40.7 nM	26.6 nM	76 nM
AAGAAACAUGAGGAUCACCCAUGUCAGGAUAUCUCGAAAAGCAUAGAAAUAUGCGAAGAGAGAAGGGACAAGAA [ChP Ext 10-04-2015] (puzzle: Exclusion 1)					56.1 nM	
AAGAAACAUGAGGAUCACCCAUGUGAGGAUAUGACCAAGAAAAGAAAAGAAAGAAGAAUCAGAAGGCACAAAGG [salish99-ex1_r3_051] (puzzle: Exclusion 1)				47.7 nM	47.2 nM	70.2 nM
AAGAAACAUGAGGAUCACCCAUGUGAGGAUAUGACGAAGAAAAGAAAAGAAAGAAGAAUCAGAAGGCACAAAGG [salish99-ex1_r3_052] (puzzle: Exclusion 1)				64.1 nM	40.8 nM	51.6 nM
AAGAAACAUGAGGAUCACCCAUGUGAGGAUAUGACGAAGAAAAGAAAAGAAAGAAGAGUCAGAAGGCACAAAGG [salish99-ex1_r3_067] (puzzle: Exclusion 1)				132 nM	100 nM	109 nM
AAGAAACAUGAGGAUCACCCAUGUGAGGAUAUGAUGAAGAAAAGAAAAGAAAGAAGACUCAGAAGGCACAAAGG [salish99-ex1_r3_070] (puzzle: Exclusion 1)				77.1 nM	45.3 nM	47.4 nM

Sequence	apparent KD of MS2 coat protein (input ligand: FMN 200 uM)	apparent KD of MS2 coat protein [1]	apparent KD of MS2 coat protein (input ligand: none)	apparent KD of MS2 coat protein [2]	apparent KD of MS2 coat protein [3]	apparent KD of MS2 coat protein [4]
AAGAAACAUGAGGAUCACCCAUGUGAGGAUAUGAUUAAGAAAAGAAAAGAAAGAAGACUCAGAAGGCACAAAGG [salish99-ex1_r3_069] (puzzle: Exclusion 1)				55.5 nM	80.9 nM	45.5 nM
AAGAAACAUGAGGAUCACCCAUGUGAGGAUAUGUAAAAUAAAAUAAAAGAAAUAAUAAACAGAAGGCACAAAGG [Mat - Mod of Hog D16] (puzzle: Exclusion 1)				47.2 nM	29.8 nM	41.8 nM
AAGAAACGAGGAUAUACAGUUGAGUGAGAGAGGGAAGUGUGACAUGAGGAUCACCCAUGUAGAAGGCGUGAGAG [JR_Exclu2_Sub087] (puzzle: Exclusion 2)				49.1 nM	40.4 nM	76.8 nM
AAGAAACGAGGAUAUACAGUUGAGUGAGAGAGGGAAGUGUUACAUGAGGAUCACCCAUGUAGAAGGCGUGAGAG [JR_Exclu2_Sub088] (puzzle: Exclusion 2)				32.9 nM	31.4 nM	33.6 nM
AAGAAGAGGUGAGGAUAUCGAAGUACAGGCUGGGACUCGGACUACAUGAGGAUCACCCAUGUAUACGAGAAGGCACUUCGAUAA [Quusatrare] (Eterna round: R96, puzzle: Exclusion NG 2)	12.6 nM	12 nM	14.7 nM			
AAGAAGCUAGGAUAUACAUGAGGAUCACCCAUGUCUCCAUGGUUGACGAGUUCCGCACGUAGAAGGAGCAAAAC [Aerdidima] (Eterna round: R97, puzzle: Exclusion 3)	225 nM		56.7 nM			
AAGACCUUUGUCAGGAUAUCAAGGCAAUUCGCCGGUGAGAAGGGACAUGAGGAUCACCCAUGUAAAGAAAAGAA [Rausedlave] (puzzle: Brourd's mod of Exclusion 4)				69 nM	20.1 nM	19.7 nM
AAGAGAGCAGGAUAUCGGUUUUGCGACAUGAGGAUCACCCAUGUGAGCCGAGUCCAACGCCGAGAAGGGCUAAAAU [Onesis] (puzzle: Exclusion 5)					53.3 nM	
AAGAGGAUUACAGGAUAUGAAGCUAAAACGGCGUUAGAAGGGUAUACAGAGUUACAUGAGGAUCACCCAUGUUGUGAUUUCUAA [AK ExNG1-V2-4.2] (Eterna round: R96, puzzle: Exclusion NG 1)	48.4 nM	38.4 nM	49.2 nM			
AAGAGGUCAGGAUAUACGGGAAGAGGGAGAAGUAGAGGGUAACAUGAGGAUCACCCAUGUAGAAGGGACUAAGA [JR_Exclu2_Sub073] (puzzle: Exclusion 2)				26.7 nM	26.4 nM	28.1 nM
AAGAGUAGAGGAUAUUGUUUAUGGCACAUGAGGAUCACCCAUGUAGCGAGAGUGGUGCCACAAGAAGGUUGCAUGA [Eternabot (L2) Solution 71] (Eterna round: R97, puzzle: Exclusion 5)	42.3 nM		52.5 nM			
AAGAGUGCAGGAUAUACGUGAUGGAGUAGGAUGAGAGAAGGACAUGAGGAUCACCCAUGUAGAAGGGCAGAGAG [JR_Exclu2_Sub059] (puzzle: Exclusion 2)				28.7 nM	43.4 nM	31 nM
AAGCAGCGAGGAUAUGCUUGAGCGUGUCCUAGUUGAAAUAAACUUGAGGAUCACCCAAGUAGAAGGCGCAGCCC [Rivezaed] (Eterna round: R97, puzzle: Exclusion 2)	135 nM		49.1 nM			
AAGCAGGUGUAGGCCGUCUACAUGAGGAUCACCCAUGUGCCUCAUCCACCCGGCACCCAAUAAAGCGGGCGCCGGGC [Teququ] (Eterna round: R96, puzzle: Sensor v2, turn-off variant)	113 nM	65.3 nM	103 nM			
AAGCCACAUGAGGAUCACCCAUGUUAGGAUAUACGCAUGCAGACACGCACGGAUGCAAGUAGAAGGAACCAUGC [Design #5] (Eterna round: R97, puzzle: Exclusion 1)	16.8 nM		15.9 nM			
AAGCUAUCUGUAGGAUAUACAACUGAUCUCGAGGUAGAAGGACAUCCAGUUACGCCAACAUGAGGAUCACCCAUGUGGAUCUUG [Eternabot solution 39] (Eterna round: R96, puzzle: Exclusion NG 1)	15.2 nM	12.9 nM	18.4 nM			
AAGGCCUGAGGAUAUCAGAGUCUAAACAUGAGGAUCACCCAUGUGAACCUGGUCAGUCUGUGAGAAGGUAGUGCUC [Tequat] (puzzle: Exclusion 5)				39.5 nM	39.8 nM	57.3 nM
